IC50 data for three molecules are collected here from patent publication US20170157198A1.

Bounds are passed on as bounds.

Assay [1] deals with T1, TFPI (human TFPI-1α), as coated or added in the ELISA and model assays (human), P10646. Put plainly: ELISA. The settings on record: modification not given. (In general: In an ELISA, binding on a coated surface is turned into a signal by an enzyme label.)
Assay [2] deals with T1, TFPI (human TFPI-1α), as coated or …. As to the kind of experiment: competition. The settings on record: modification not given.

B1: JBT0720 (peptide)
chain: FQSKGNVFVTGYFARLRAKL
As usually defined, the IC50 is the concentration at which inhibition is half-maximal. In assay [1], B1 showed an IC50 of 27 nM.

B2: JBT0681 (peptide)
chain: FQSKGAVFVFGYFARLRAKL
In the case of B2, the IC50 in assay [2] came to 68 nM.

B3: JBT0783 (peptide)
chain: LKARLREFYGFVFVNKKSQF
In the case of B3, the IC50 in assay [1] was over 1670 nM.
